Common to all, as to assay: SPR
Test [1] has as its target T1, PRTG ECD-Fc (human, UniProt Q2VWP7 36-949).
T1 sequence: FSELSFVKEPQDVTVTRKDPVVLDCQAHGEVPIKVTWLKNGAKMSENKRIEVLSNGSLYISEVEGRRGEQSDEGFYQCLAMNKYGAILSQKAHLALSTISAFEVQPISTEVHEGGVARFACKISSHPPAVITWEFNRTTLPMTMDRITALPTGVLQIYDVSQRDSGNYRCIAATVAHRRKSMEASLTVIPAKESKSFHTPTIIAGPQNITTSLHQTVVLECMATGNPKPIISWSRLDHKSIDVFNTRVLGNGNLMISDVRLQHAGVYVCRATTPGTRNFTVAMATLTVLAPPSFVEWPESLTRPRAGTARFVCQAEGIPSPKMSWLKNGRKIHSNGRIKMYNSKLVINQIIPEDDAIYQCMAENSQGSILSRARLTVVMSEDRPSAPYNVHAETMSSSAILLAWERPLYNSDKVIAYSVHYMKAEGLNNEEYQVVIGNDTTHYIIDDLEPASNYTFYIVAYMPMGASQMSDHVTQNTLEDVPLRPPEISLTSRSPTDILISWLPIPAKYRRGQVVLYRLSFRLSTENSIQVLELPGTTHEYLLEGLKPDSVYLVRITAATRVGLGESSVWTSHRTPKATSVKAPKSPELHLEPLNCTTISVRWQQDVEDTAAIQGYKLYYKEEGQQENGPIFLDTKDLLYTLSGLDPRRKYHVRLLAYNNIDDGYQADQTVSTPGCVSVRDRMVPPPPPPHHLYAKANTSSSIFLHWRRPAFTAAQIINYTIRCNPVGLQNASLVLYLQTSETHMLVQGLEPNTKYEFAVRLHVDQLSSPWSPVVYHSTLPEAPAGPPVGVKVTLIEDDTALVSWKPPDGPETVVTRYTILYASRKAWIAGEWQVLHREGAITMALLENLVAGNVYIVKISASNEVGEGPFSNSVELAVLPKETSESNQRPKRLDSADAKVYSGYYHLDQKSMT

Test [2] deals with T2, IL-6Rα ECD-Fc (human, UniProt P08887 20-365, biotin on the AviTag (as SPR ligand)).
T2 sequence: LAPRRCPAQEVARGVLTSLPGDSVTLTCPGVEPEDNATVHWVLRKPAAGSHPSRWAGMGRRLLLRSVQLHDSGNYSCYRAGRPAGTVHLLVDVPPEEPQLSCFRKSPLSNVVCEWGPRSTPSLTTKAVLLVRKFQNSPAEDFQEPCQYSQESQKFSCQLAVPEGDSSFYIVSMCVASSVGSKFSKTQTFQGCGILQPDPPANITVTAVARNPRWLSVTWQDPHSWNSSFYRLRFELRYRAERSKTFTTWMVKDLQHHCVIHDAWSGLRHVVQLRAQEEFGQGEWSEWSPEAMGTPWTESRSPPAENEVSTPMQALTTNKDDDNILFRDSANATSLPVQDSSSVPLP

In test [3] the target is T3, human ISLR2 ECD-Fc (human, UniProt Q6UXK2 19-589, biotin on the AviTag (as SPR ligand)).
T3 sequence: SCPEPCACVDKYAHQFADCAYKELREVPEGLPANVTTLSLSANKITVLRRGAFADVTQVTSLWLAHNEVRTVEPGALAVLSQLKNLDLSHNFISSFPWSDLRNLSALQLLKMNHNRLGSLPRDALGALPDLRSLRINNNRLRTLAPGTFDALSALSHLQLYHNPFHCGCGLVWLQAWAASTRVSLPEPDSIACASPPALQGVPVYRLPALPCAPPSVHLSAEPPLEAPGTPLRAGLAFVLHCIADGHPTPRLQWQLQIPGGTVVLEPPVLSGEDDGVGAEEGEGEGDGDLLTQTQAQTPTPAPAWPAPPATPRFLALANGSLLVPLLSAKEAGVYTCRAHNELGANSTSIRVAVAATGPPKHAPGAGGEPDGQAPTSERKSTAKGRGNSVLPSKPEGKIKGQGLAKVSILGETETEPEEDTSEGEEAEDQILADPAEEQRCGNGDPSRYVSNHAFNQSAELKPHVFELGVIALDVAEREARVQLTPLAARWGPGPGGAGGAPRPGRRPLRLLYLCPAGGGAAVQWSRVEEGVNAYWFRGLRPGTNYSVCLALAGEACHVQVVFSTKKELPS

In test [4] the target is T4, TIE1 ECD-Fc (human, UniProt P35590 22-759, biotin on the AviTag (as SPR ligand)).
T4 sequence: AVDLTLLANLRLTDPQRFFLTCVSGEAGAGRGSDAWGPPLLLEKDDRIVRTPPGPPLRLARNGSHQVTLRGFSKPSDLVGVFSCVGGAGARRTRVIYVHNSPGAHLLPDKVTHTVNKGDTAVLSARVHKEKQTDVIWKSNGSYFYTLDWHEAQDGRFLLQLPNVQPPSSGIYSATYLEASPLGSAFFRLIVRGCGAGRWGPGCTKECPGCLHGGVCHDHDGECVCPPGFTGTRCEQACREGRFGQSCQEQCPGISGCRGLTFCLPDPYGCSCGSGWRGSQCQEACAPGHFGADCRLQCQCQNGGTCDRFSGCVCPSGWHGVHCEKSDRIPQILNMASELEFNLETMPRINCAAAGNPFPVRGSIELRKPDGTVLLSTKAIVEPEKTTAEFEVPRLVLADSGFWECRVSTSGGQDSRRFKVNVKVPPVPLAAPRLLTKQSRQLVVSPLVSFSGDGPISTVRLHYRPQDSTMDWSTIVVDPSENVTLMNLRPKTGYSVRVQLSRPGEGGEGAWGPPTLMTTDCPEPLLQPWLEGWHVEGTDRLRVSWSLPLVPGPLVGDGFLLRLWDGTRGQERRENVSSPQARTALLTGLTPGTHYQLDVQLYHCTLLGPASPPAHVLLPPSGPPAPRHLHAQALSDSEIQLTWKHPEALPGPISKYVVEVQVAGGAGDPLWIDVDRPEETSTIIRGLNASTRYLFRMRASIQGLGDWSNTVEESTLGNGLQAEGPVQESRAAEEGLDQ

Test [5] addresses TIE2 ECD-Fc (human, UniProt Q02763 23-748, biotin on the AviTag (as SPR ligand)).

Chain of TIE2 ECD-Fc (Q02763 23-748): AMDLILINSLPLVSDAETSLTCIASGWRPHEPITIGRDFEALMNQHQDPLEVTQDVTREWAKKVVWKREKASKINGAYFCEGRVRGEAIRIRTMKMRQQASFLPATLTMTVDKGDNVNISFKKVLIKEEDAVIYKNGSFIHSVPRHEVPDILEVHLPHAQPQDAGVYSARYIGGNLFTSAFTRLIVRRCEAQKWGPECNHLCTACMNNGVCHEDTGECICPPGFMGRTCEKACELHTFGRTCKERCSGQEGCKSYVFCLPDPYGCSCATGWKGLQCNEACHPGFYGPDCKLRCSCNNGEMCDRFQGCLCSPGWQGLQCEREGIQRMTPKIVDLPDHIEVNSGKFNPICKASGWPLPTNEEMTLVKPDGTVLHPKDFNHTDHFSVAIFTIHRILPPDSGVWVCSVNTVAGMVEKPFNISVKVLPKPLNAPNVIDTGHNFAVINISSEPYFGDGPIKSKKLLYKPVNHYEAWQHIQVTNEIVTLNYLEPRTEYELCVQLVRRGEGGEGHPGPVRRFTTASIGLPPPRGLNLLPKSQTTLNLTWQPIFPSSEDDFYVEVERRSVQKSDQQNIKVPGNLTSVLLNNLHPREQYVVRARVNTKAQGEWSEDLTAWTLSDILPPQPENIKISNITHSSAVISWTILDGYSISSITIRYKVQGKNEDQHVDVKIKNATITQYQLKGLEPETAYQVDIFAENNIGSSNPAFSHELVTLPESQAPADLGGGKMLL

B1: IGFBPL1-Fc (Fc fusion)
chain: LGIRDVGGRRPKCGPCRPEGCPAPAPCPAPGISALDECGCCARCLGAEGASCGGRAGGRCGPGLVCASQAAGAAPEGTGLCVCAQRGTVCGSDGRSYPSVCALRLRARHTPRAHPGHLHKARDGPCEFAPVVVVPPRSVHNVTGAQVGLSCEVRAVPTPVITWRKVTKSPEGTQALEELPGDHVNIAVQVRGGPSDHEATAWILINPLRKEDEGVYQCHAANMVGEAESHSTVTVLDLSKYRSFHFPAPDDRM
modifications: biotin on the AviTag (as SPR ligand)
On to B1, for which the binding result in test [1], in test [2] and in test [3] was “binds” each time.

B2: IGFBP7-Fc (Fc fusion)
chain: SSSDTCGPCEPASCPPLPPLGCLLGETRDACGCCPMCARGEGEPCGGGGAGRGYCAPGMECVKSRKRRKGKAGAAAGGPGVSGVCVCKSRYPVCGSDGTTYPSGCQLRAASQRAESRGEKAITQVSKGTCEQGPSIVTPPKDIWNVTGAQVYLSCEVIGIPTPVLIWNKVKRGHYGVQRTELLPGDRDNLAIQTRGGPEKHEVTGWVLVSPLSKEDAGEYECHASNSQGQASASAKITVVDALHEIPVKKGEGAEL
modifications: biotin on the AviTag (as SPR ligand)
Take B2: the binding result in test [1], in test [2] and in test [3] was “binds” throughout.

B3: TrkA ECD-Fc (Fc fusion)
chain: AAPCPDACCPHGSSGLRCTRDGALDSLHHLPGAENLTELYIENQQHLQHLELRDLRGLGELRNLTIVKSGLRFVAPDAFHFTPRLSRLNLSFNALESLSWKTVQGLSLQELVLSGNPLHCSCALRWLQRWEEEGLGGVPEQKLQCHGQGPLAHMPNASCGVPTLKVQVPNASVDVGDDVLLRCQVEGRGLEQAGWILTELEQSATVMKSGGLPSLGLTLANVTSDLNRKNVTCWAENDVGRAEVSVQVNVSFPASVQLHTAVEMHHWCIPFSVDGQPAPSLRWLFNGSVLNETSFIFTEFLEPAANETVRHGCLRLNQPTHVNNGNYTLLAANPFGQASASIMAAFMDNPFEFNPEDPIPVSFSPVDTNSTSGDPVEKKDETPFGVSVAVG
modifications: biotin on the AviTag (in streptavidin-Alexa 647 tetramers)
For the molecule B3, the binding result in test [4] was “binds”.

B4: Recombinant Human Angiopoietin-1 Protein (ligand)
chain: HIGCSNQRRSPENSGRRYNRIQHGQCAYTFILPEHDGNCRESTTDQYNTNALQRDAPHVEPDFSSQKLQHLEHVMENYTQWLQKLENYIVENMKSEMAQIQQNAVQNHTATMLEIGTSLLSQTAEQTRKLTDVETQVLNQTSRLEIQLLENSLSTYKLEKQLLQQTNEILKIHEKNSLLEHKILEMEGKHKEELDTLKEEKENLQGLVTRQTYIIQELEKQLNRATTNNSVLQKQQLELMDTVHNLVNLCTKEGVLLKGGKREEEKPFRDCADVYQAGFNKSGIYTIYINNMPEPKKVFCNMDVNGGGWTVIQHREDGSLDFQRGWKEYKMGFGNPSGEYWLGNEFIFAITSQRQYMLRIELMDWEGNRAYSQYDRFHIGNEKQNYRLYLKGHTGTAGKQSSLILHGADFSTKDADNDNCMCKCALMLTGGWWFDACGPSNLNGMFYTAGQNHGKLNGIKWHYFKGPSYSLRSTTMMIRPLDF
For B4, the binding result in test [5] was “binds”.

Values taken from PMC7440162 (Cell, 2020).
